We go through five sequences from the supplement of paper PMC5998384.

The subject of series [1] is HeLa Kyoto. Kind of series: solubility in G1/S (NP-40 vs SDS abundance) (log2 ratio); higher = more soluble. To be noted: cell cycle stage: G1/S.
In series [2] the test system is HeLa Kyoto. The experiment in a line: melting temperature (median over replicates), in situ; higher = more thermally stable.
Series [3] has as its system HeLa Kyoto. Kind of series: solubility change mitosis vs G1/S (difference of NP-40 vs SDS log2 ratios) (log2 ratio difference); higher = more soluble in mitosis.
In series [4] the test system is HeLa Kyoto. The experiment in a line: thermal stability score vs G1/S (z-score of summed log2 fold changes over temperatures); higher = more thermally stable than in G1/S.
The mark [5] stands for this setting: cell cycle stage: early G1 (4.5 h after nocodazole release).
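Throughout, for melting temperature (median over replicates), in situ: HeLa Kyoto cells synchronized by double thymidine or nocodazole block, proteins quantified by TMT10plex mass spectrometry, three independent biological replicates.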
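Throughout, for solubility change mitosis vs G1/S (difference of NP-40 vs SDS log2 ratios): synchronized HeLa Kyoto cells (double thymidine block for G1/S, nocodazole release for mitosis), protein amounts in NP-40 versus SDS lysates quantified by mass spectrometry, three biological replicates.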
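Throughout, for solubility in G1/S (NP-40 vs SDS abundance): HeLa Kyoto cells arrested at G1/S by double thymidine block, proteins quantified by TMT10plex mass spectrometry in mild NP-40 versus SDS extracts, three biological replicates.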
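Throughout, for thermal stability score vs G1/S (z-score of summed log2 fold changes over temperatures): synchronized HeLa Kyoto cells, proteins quantified by TMT10plex mass spectrometry, three biological replicates, mitosis taken 0.5 h after nocodazole release, G1/S directly after double thymidine block.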

As to “MEFPGGNDNYLTITGPSHPFLSGAETFHTPSLGDEEFEIPPISLDSDPSLAVSDVVGHFDDLADPSSSQDGSFSAQYGVQTLDMPVGMTHGLMEQGGGLLSGGLTMDLDHSIGTQYSANPPVTIDVPMTDMTSGLMGHSQLTTIDQSELSSQLGLSLGGGTILPPAQSPEDRLSTTPSPTSSLHEDGVEDFRRQLPSQKTVVVEAGKKQKAPKKRKKKDPNEPQKPVSAYALFFRDTQAAIKGQNPNATFGEVSKIVASMWDSLGEEQKQVYKRKTEAAKKEYLKALAAYKDNQECQATVETVELDPAPPSQTPSPPPMATVDPASPAPASIEPPALSPSIVVNSTLSSYVANQASSGAGGQPNITKLIITKQMLPSSITMSQGGMVTVIPATVVTSRGLQLGQTSTATIQPSQQAQIVTRSVLQAAAAAAAAASMQLPPPRLQPPPLQQMPQPPTQQQVTILQQPPPLQAMQQPPPQKVRINLQQQPPPLQIKSVPLPTLKMQTTLVPPTVESSPERPMNNSPEAHTVEAPSPETICEMITDVVPEVESPSQMDVELVSGSPVALSPQPRCVRSGCENPPIVSKDWDNEYCSNECVVKHCRDVFLAWVASRNSNTVVFVK [TOX4]”, in series [1], the “solubility in G1/S (log2)” value is -0.562. Also, the melting temperature in series [2] (cell cycle stage: G1/S) is 50.6 °C; in series [2] (cell cycle stage: mitosis), 53 °C. Also, the “solubility change mitosis (log2)” value in series [3] was 0.0879. For the same sequence, the thermal stability score in series [4] (setting [5]) is 0.423; in series [4] (cell cycle stage: mitosis), 0.887.
As for “MEFVKCLGHPEEFYNLVRFRIGGKRKVMPKMDQDSLSSSLKTCYKYLNQTSRSFAAVIQALDGEMRNAVCIFYLVLRALDTLEDDMTISVEKKVPLLHNFHSFLYQPDWRFMESKEKDRQVLEDFPTISLEFRNLAEKYQTVIADICRRMGIGMAEFLDKHVTSEQEWDKYCHYVAGLVGIGLSRLFSASEFEDPLVGEDTERANSMGLFLQKTNIIRDYLEDQQGGREFWPQEVWSRYVKKLGDFAKPENIDLAVQCLNELITNALHHIPDVITYLSRLRNQSVFNFCAIPQVMAIATLAACYNNQQVFKGAVKIRKGQAVTLMMDATNMPAVKAIIYQYMEEIYHRIPDSDPSSSKTRQIISTIRTQNLPNCQLISRSHYSPIYLSFVMLLAALSWQYLTTLSQVTEDYVQTGEH [FDFT1]”, the “solubility in G1/S (log2)” value in series [1] is -0.184. For the same sequence, the values for the melting temperature in series [2] (cell cycle stage: G1/S) and in series [2] (cell cycle stage: mitosis) were 52.2 °C and 51.4 °C, respectively. Besides, the “solubility change mitosis (log2)” value in series [3] is -0.0823. For the same sequence, the results for the thermal stability score in series [4] (setting [5]) and in series [4] (cell cycle stage: mitosis) were 1.39 and 0.889, respectively.
Regarding “MEGAGYRVVFEKGGVYLHTSAKKYQDRDSLIAGVIRVVEKDNDVLLHWAPVEEAGDSTQILFSKKDSSGGDSCASEEEPTFDPGYEPDWAVISTVRPQLCHSEPTRGAEPSCPQGSWAFSVSLGELKSIRRSKPGLSWAYLVLVTQAGGSLPALHFHRGGTRALLRVLSRYLLLASSPQDSRLYLVFPHDSSALSNSFHHLQLFDQDSSNVVSRFLQDPYSTTFSSFSRVTNFFRGALQPQPEGAASDLPPPPDDEPEPGFEVISCVELGPRPTVERGPPVTEEEWARHVGPEGRLQQVPELKNRIFSGGLSPSLRREAWKFLLGYLSWEGTAEEHKAHIRKKTDEYFRMKLQWKSVSPEQERRNSLLHGYRSLIERDVSRTDRTNKFYEGPENPGLGLLNDILLTYCMYHFDLGYVQGMSDLLSPILYVIQNEVDAFWCFCGFMELVQGNFEESQETMKRQLGRLLLLLRVLDPLLCDFLDSQDSGSLCFCFRWLLIWFKREFPFPDVLRLWEVLWTGLPGPNLHLLVACAILDMERDTLMLSGFGSNEILKHINELTMKLSVEDVLTRAEALHRQLTACPELPHNVQEILGLAPPAEPHSPSPTASPLPLSPTRAPPTPPPSTDTAPQPDSSLEILPEEEDEGADS [TBC1D17]”, the “solubility in G1/S (log2)” value in series [1] was -0.0906. In addition, the results for the melting temperature in series [2] (cell cycle stage: G1/S) and in series [2] (cell cycle stage: mitosis) were 51.4 °C and 50.7 °C, respectively. For the same sequence, the “solubility change mitosis (log2)” value in series [3] is -0.0875. Moreover, the thermal stability score is -0.527 in series [4] (setting [5]) and -0.608 in series [4] (cell cycle stage: mitosis).
In the case of “MEGCVSNLMVCNLAYSGKLEELKESILADKSLATRTDQDSRTALHWACSAGHTEIVEFLLQLGVPVNDKDDAGWSPLHIAASAGRDEIVKALLGKGAQVNAVNQNGCTPLHYAASKNRHEIAVMLLEGGANPDAKDHYEATAMHRAAAKGNLKMIHILLYYKASTNIQDTEGNTPLHLACDEERVEEAKLLVSQGASIYIENKEEKTPLQVAKGGLGLILKRMVEG [PSMD10]”, in series [1], the “solubility in G1/S (log2)” value stood at 0.145. The melting temperature in series [2] (cell cycle stage: G1/S) stood at 48.5 °C; in series [2] (cell cycle stage: mitosis), 49.8 °C. In addition, in series [3], the “solubility change mitosis (log2)” value was 0.136. Besides, the values for the thermal stability score in series [4] (setting [5]) and in series [4] (cell cycle stage: mitosis) were 0.248 and 1.31, respectively.
“MEGDAVEAIVEESETFIKGKERKTYQRRREGGQEEDACHLPQNQTDGGEVVQDVNSSVQMVMMEQLDPTLLQMKTEVMEGTVAPEAEAAVDDTQIITLQVVNMEEQPINIGELQLVQVPVPVTVPVATTSVEELQGAYENEVSKEGLAESEPMICHTLPLPEGFQVVKVGANGEVETLEQGELPPQEDPSWQKDPDYQPPAKKTKKTKKSKLRYTEEGKDVDVSVYDFEEEQQEGLLSEVNAEKVVGNMKPPKPTKIKKKGVKKTFQCELCSYTCPRRSNLDRHMKSHTDERPHKCHLCGRAFRTVTLLRNHLNTHTGTRPHKCPDCDMAFVTSGELVRHRRYKHTHEKPFKCSMCDYASVEVSKLKRHIRSHTGERPFQCSLCSYASRDTYKLKRHMRTHSGEKPYECYICHARFTQSGTMKMHILQKHTENVAKFHCPHCDTVIARKSDLGVHLRKQHSYIEQGKKCRYCDAVFHERYALIQHQKSHKNEKRFKCDQCDYACRQERHMIMHKRTHTGEKPYACSHCDKTFRQKQLLDMHFKRYHDPNFVPAAFVCSKCGKTFTRRNTMARHADNCAGPDGVEGENGGETKKSKRGRKRKMRSKKEDSSDSENAEPDLDDNEDEEEPAVEIEPEPEPQPVTPAPPPAKKRRGRPPGRTNQPKQNQPTAIIQVEDQNTGAIENIIVEVKKEPDAEPAEGEEEEAQPAATDAPNGDLTPEMILSMMDR [CTCF]”: the “solubility in G1/S (log2)” value in series [1] is -0.451. For the same sequence, the results for the melting temperature in series [2] (cell cycle stage: G1/S) and in series [2] (cell cycle stage: mitosis) were 55.5 °C and 54.4 °C, respectively. In addition, the “solubility change mitosis (log2)” value in series [3] stood at 0.0343. In addition, the thermal stability score in series [4] (setting [5]) is -1.57; in series [4] (cell cycle stage: mitosis), -1.93.
